# Test results from the DeepSol protein solubility set.
# Assay: soluble on expression in E. coli; label from the status in PepcDB or PDB records
row,Sequence,soluble on expression in E. coli
1,MLQLLLFLIFCSFTNASSCQDKSPYCNPNDCEVRPGYAMVYCRKTCGNCADFCEDSKFITCSAERKKDCDDMLSDYCPRLCGKCYAKLKPDSKRTKTIPVTQFKRNPAATSTTTTTTRSPSIRMKQPRMLPNGTFINPPLPKYEKLDDTTYTIPEHPTVIDYPIAHMEELMIPEPQRIWPEPEPMRIEPISVYSPYSFVPVQPQVSQPYSPWSPTLGLSSSLDSSRRAPQNYFSSYSQYPQYPDEKLNTIAPNPMQLVEPFLTPGQNDLNPKSMSSLINLLGCKDKDEVICKHVTADTCLSRPGYYLKLCPVTCKNCSGYQCIDSIKIDCAEVKAQGACKLSVASEYCPRTCEYCNPPSDMAKTMSDCKDELETCEQLAESGACQHDFR,not soluble
2,MLQPPKIVAELSANHNQDLNLAKESLHAIKESGADFVKLQTYTPSCMTLNSKEDPFIIQGTLWDKENLYELYQKASTPLEWHAELFELARKLDLGIFSSPFSSQALELLESLNCPMYKIASFEIVDLDLIEKAARTQKPIILSSGIATHTELQDAISLCRRVNNFDITLLKCVSAYPSKIEDANLLSMVKLGEIFGVKFGLSDHTIGSLCPILATTLGASMIEKHFILNKSLQTPDSAFSMDFNGFKSMVEAIKQSVLALGEEEPRINPKTLEKRRFFARSLFVIKDIQKGEALTENNIKALRPNLGLHPKFYKEILGQKASKFLKANTPLSADDIERSLLEHHHHHH,not soluble
3,MLQSINQLNPDIVVITGDLTENGFSAEYDGVKMFIDRIECKNRVLVPGNHDSKNAGYLHFEDLFENRFQTRNLGNMTIVGADSSQPDIDDGHLGRENYGWIKEAFSGENFKVFALHHHLVPIPLAGRENTVLVDAGDVLDLLNKCRVNLVLCGHCHIPHVWNLNNMLVVNAGTFCSSKTRGKTTQCFNLIQAENSEKNGNGESEKIEDGGWKVRVSRVFPQGNIEFITETVMLEHHHHHH,not soluble
4,MLRAAGNLSKSMMKSQRRFLNLQEFQSKEILEKHGCSVQNFVVASNRKEAEEKWMSFGDHEYVVKAQILAGGRGKGKFINGTKGIGGVFITKEKDAALEAIDEMIGKRLVTKQTTSEGVRVDKVMIAEGVDIKRETYLAVLMDRESNGPVVVASPDGGMDIEAVAEKTPERIFKTPIDIQMGMTEGQSLKIAKDLQFEGKLIGVAAQEIKRLYDLFIAVDATQVEINPLVETADGRVFCVDAKMNFDDSAAYRQKEIFAYETFEEHDPREVDAHQFNLNYIGMDGNIACLVNGAGLAMATMDLIKLHGGEPANFLDVGGAVTEDAVFNAVRIITSDPRVKCVLINIFGGIVNCATIANGVVSAVNKIGLNVPMVVRLEGTNVDAAKQIMKKSGLKILTANNLDEAAAKAVSSLPK,not soluble
5,MLRAKLLSWQEGVGSKTFEFDVDVEPRSYVISKVSQLSPIIASEDLTVCEGEVAVVGTRVIEIPENTVVRPVAAISHANGFVADVIECGAPGMVEDEKCINHAVFIPTRSGDVKEGDLLGMLRINFVRTGLLSRVIPSKPRVEERTVKASLTWVEGGVFYRENVTGTFSGYFESERCSLLPIVADERVRIEKGGVSAVEIERVDVKGGSIITPYGLAANAFAQLLDLVGGRTRKFEEDRVFDEAVLVGFSDGVVEKGEVLGLVCVMGESSGGGNSRQLQFSRKAGKGVVKTIHEYRSKPLRVGRKGEWRPAISDENRKLIRGVAEIIKIRPINVPDYAVVNPLGIMRQAYGTMVGGIANEPWSLESRKTIEEVVFLPIMDGEVRKGQLIGVFNVTRVAEGKLLEHHHHHH,soluble
6,MLRCCSALMCPTAVPSRVSPVAAAAAADIAGSSESTVSLVADVDKKNSQYKQIFLERFRKKLQSDKTGMNNLESFVELPEGVAPSAASIGPIKRGSEPLPPWIKLKVPKGMTHRPRFNRIRRSMREKNLSTVCEEAKCPNIGECWGGSDEEGTATATIMVMGSHCTRGCRFCSVLTSRRPPPLDPEEPEKVAAAVHEMGVDYIVMTMVDRDDLPDGGASHVCCCIHTIKKKNPELMLEALVGDFHGDLKLVEQLAVTPLSVYAHNIECVERITPRVRDRRASYRQSLQTLEHVTKWTNGNMLTKSSIMLGLGEEEAEVRQTLRDLRTAGVSAVTLGQYLQPSHTRLKVSRYAHPKEFEMWEKEAMDMGFLYCASGPMVRSSYRAGEYYIKNILKQRQSAEGGKAAAAATAVNAGTAIA,not soluble
7,MLRHKEPGSGSGGGVYWVDSQQKRYVPVKGDHVIGIVTAKSGDIFKVDVGGSEPASLSYLSFEGATKRNRPNVQAISSRLLEHHHHHH,not soluble
8,MLRRSSVVLARFQPYSMAVQTRFKWRHKETDRWRRLMDATCFQVDWLGQTAGPNFAQYSGHWTHVITCAHVITPWDYPNYYPPQGPTRFVSHITLADTMTQIRLVSMQGNAVYKHFTSNQHVFVHSNPRLDLCVLHPEQNLKRSGEMKMMWMQNEGYISRPRLEINETLKVGDYVWVYGMSAHESLFDEEKGPEPLMIPTGVRARVHAVTREHFFLDTTALEDNPDRGRIQMGMCGSVVMRNGKCVGMLTATVHEESDCKELAGTAMCTYSSDVFEFLLEVEKQMKNPVARQSQEETRFEQRRRAEGGVKEHKHWELDESRTARHIPVPVSLWHMEEKWVTEEDYMNSAVFGRSGAFNQETQESALGYDMNTAKTNGDRPGDIDSFMSTTTTGKPVMQGERKDYSPTGVYANVEEFKNKDVWDYNVSSEMRSLFNETVDSKDAESLNMMRKSLENIRAQRAMEKMKETVMNRTEPGFDPLKGYGHYGGSADAGAANFNPEYASAHKGSGDAYSYAQAAQQAAREQPGDHASPASTPPPSPPPPNESVIDRKKRERREAEAKYQEELRRRHGQRAVPFGDEDLSGFWERR,not soluble
9,MLRRVNEQGPVQGRAQAPVKPDDSVPPELARARVWILTDGKAGDENQCIGIAEALGLAYETRRIPDGRPLTWMAPWGPIDPRDAPGRAGGLLQGPLPHLLIASGRRAVPYLRAVRRASDEKTFTAFLKDPRTGHDTADFIWVPDYDDLRGPNVFTTLTAPHPVSRARLDAARTTPDPRLARLPWPRIAVLIGGDSRHLRYRKADMQRLVRDLTKLAEGGCSLMLTVSRRTPPDLRKALEDLVKDKGGFFWDGSGENPYVGMLAIADHIVVTSDSANMVGEAASTGVPLLLFDLPRTYIRHRRMFAGLAMAGALKPFIGRLEALRYAPIDATPEIAAALAEGYQRHRARLAGEVAAVPRPAEPTSAPRGPFLEHHHHHH,not soluble
10,MLSALACNMKYSSHPAAVAAGRGGNRRGGRMYAYERITDPAGFAAIEDEWRALAEACGGGGVFASHAFLLSWAETFGQGRRLAVSLLRHKGALVGALPMFHTGQARAVAAMGEGRAGMAQWLLHPDLPDADAALAALLRPDWLSFWRLEPLETPDAEALERAARRAGLAVRRKATMRACSVTTEGDFDSYLGGLKSKTRQVFRRSERKLAEMEVRDLRSDRDGRAALDAYLAASRASWKGLTGTGYGAAPEGVAFVEKLFERLGPEACYLAARQVGEVAISGRFVLVHDNMHYGMANDFNEEYADLAVGRNSIMQSVRDAFEGGAAGFDFTRCNGLVREVSTDERPLERVLIHRRGDPTLAAFFAARGLRRLRRKASGWQKGRRGVVS,not soluble
11,MLSCVIPAHDEAALIGQTLQCLHACAQAMQLDYEAIVVADACSDDTAAIARANGASVIEVELRHIAATRNAGAQAAQGDRLLFLDADTQVNPQVMAAALAALDAGAVGGGARVHLHGKRVWVERMAQAVFGWIFRLSGIAPGCFLFCTRAAFASAGGFDTRYYAGEDVALSRSLARCGRFVILRQTVHTSDRKLRSFSKREHVGLLLRFLWRGRRMLQTRDALGFWYQRRRLEHHHHHH,not soluble
12,MLSEFLHNKSDAMVNQTHEFLLEMTGVSKEFPGVKALDKVNLKVRPHSVHALMGENGAGKSTLLKCLFGIYEKDEGDIIFLGQHVNFSSSKEALESGVSMVHQELNQVKQCSVMDNIWLGRYPTKGFFVDHDKMYRDTKAIFAELDIDIDPKVKVATLSVSQMQMLEIAKAFSYDAKVVIMDEPTSSLTEKEVNHLFTIIKKLKEKGCGVVYISHKMEEIFSICDEITILRDGQWVDTRPLKGLDMDKIISMMVGRELTQRFPEKSNEPKNVILEVKNLTALNQPSIQDISFELRAGEILGVAGLVGSRRTDIVETIFGVRERSAGHILLHGREMKNHDAHEAIRNGFALVTEERRSTGIYSNLDITFNSLVANVDEYKTPYGLLSDKKMKSDTQWVIDSMRVKTPSHQTHIGSLSGGNQQKVIIGRWLLTQPEILMLDEPTRGIDVGAKYEIYQLILELAKKDKGIIIISSEMPELLGITDRIMVMSNGRNAGIVNTKQTSQNEILELASRYL,not soluble
13,MLSGTRSRSSTKARKGTPRPPALSQSVYCGRRYTGPHTTFFFEITNDEYLLLSVLIFCNPALLQLSENGKLLLTIYRNLYCSALLQHCLLNNQKSGPARFTELLGVYQAIEVHYSDLANYIVLFQLNRPKVNQIVKNCFEAVT,not soluble
14,MLSKTNQNIFTVSRLNAEVRLLLENEMGIVWLVGEISNFSAPVSGHWYLTLKDSRAQVKCAMFRGNNRRVTFKPANGNQVLVKARLSLYEPRGDYQLIIESMQPEGDGRLQQEFEELKMKLAAEGLFAQTNKLPLPEHPKRVGIITSKTGAALYDILDVLKRRDPSLPVVIYPTMVQGDDAAIQIAQAIGRANSRNECDVLIVGRGGGSLEDLWCFNNEILARTIAASQIPIISAVGHEVDMTIADFVADVRAPTPSAAAELVSRDNSHKDQSLVAKQHKLASAMRYYLSQQKQQSAQLLHRLERQHPSYQLQRQSQQLDELDMRLRRAMQRFIDTRQQAVERKHHRLQLNSPVKHLAQQKSRLERVEHKLLDTMDRKLLTMRHQLAIAAEKLDTVSPLATLKRGYSITQTEQGKVVTSADDVKTGDLLVTRLANGEIHSTVS,not soluble
15,MLSQLPLFAGGEIVRGFGRGSKELGIPTANFPLEVVKSLPESLPTGAYYGWANVDNGPVHKMVLSIGWNPFYNNKEKSVETHMLHDFNCDLYGQTLKICIVGYLRPERSFDSLESLIAAIRGDIEQAKAFLDEADKAKLKEAPFFTEKLCSSKLEHHHHHH,not soluble
16,MLSSSPASCTSPSPGTDNPDKKVHWASEKRRRASSTDSESKTHLDISKLPRSRRPSRLTVKYDRGHLQRWLEMEQWVDAQVQELFQGQEESSEPEIDLEALMDLSTEDQRTQLEAILQDCPGNREPFISELLSQLKRLRRLSRPSK,soluble
17,MLSVMRMQIPKTHPRYESLMKREKIIEALDKGILAKAGLIAHGRGETFDYLIGEKTAPIALEAIKAAAALLILAENPVISVNGNTVALAIDEVVELAKELNGKIEVNLFYRTKERELAIKRAFEEKFKDDIETGKIKILGIDDANKQIPNLDSLRGKVSEEGIFTADVVLVPLEDGDRAEALVNMGKKVIAIDLNPLSRTARKSTITIVDELTRAMPLLIKYVKEFKNKDREELLKIVEDFDNKKNLKDMIDYIAERLKNLSLEHHHHHH,soluble
